{
  "source": "patent US20220010284A1",
  "about": "(TRUSTEES OF PRINCETON UNIVERSITY, published 2022)",
  "molecules": {"B1": {"name": "Qtip (Gp55 of phage VP882, quorum triggered inactivator of cI protein) (other)", "chain": "MCDFCSEHIDSLDALQSSLEKGTAIIELLDTALSAGIEVSPRVVSCALSAAHQHLQVSEKINRSLQIGCGSKEVLRLVD", "notes": "also called phage VP882 Qtip; pTetA-qtip"}, "B2": {"name": "ORF584 (Qtip-like protein of phage MJ1) (other)", "chain": "MDLRVSNAKDLLDKFEEKAVQMESISQLLANAPEDLTLATVQGSLSALASIARDAGEAADRLRTISSAEG", "notes": "also called phage MJ1 orf584; pTetA-orf584"}},
  "key": {"[1]": {"test_system": "Gp59 (cI repressor, phage VP882) (Vibrio phage VP882)", "test": "cell_activity", "details": "Pq-lux in E. coli, arabinose induced; direct binding inferred"}, "[2]": {"target": "T1, lambda HALO-cI (HIS-HALO-cIlambda) (phage lambda, UniProt P03034 2-237)", "T1 construct": "also called lambda cI; lambda repressor; not shown: N-terminal HIS-HALO tag and linker from vector pH6HTN", "T1 sequence": "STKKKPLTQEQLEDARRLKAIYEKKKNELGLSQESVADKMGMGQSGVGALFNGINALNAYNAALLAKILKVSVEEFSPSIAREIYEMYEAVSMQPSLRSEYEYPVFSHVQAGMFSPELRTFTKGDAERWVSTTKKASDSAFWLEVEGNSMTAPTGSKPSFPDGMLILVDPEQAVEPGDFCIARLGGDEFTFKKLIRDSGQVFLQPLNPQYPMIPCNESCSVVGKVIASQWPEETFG", "test": "confocal microscopy of HALO-cI localization in E. coli co-expressing Qtip"}, "[3]": {"target": "T1, lambda HALO-cI (HIS-HALO-cIlambda)", "test": "confocal microscopy of HALO-cI localization in E. coli with induced orf584"}},
  "data": [
    {"molecule": "Pq (q/gp62 promoter)", "values": [
      {"measurement": "activity (fold repression)", "setting": "[1]", "value": 140}
    ]},
    {"molecule": "B1", "values": [
      {"measurement": "binding result", "setting": "[2]", "value": "no binding"}
    ]},
    {"molecule": "B2", "values": [
      {"measurement": "binding result", "setting": "[3]", "value": "no binding"}
    ]}
  ]
}
